{
  "source": "paper PMC8608356",
  "assay_in_all_cases": "BLI",
  "conditions_in_all_cases": "biotinylated; BLI (BLItz): 20 mM Tris-HCl pH 7.4, 80 mM NaCl, 20 mM KCl, 1 mM DTT, room temperature; […] (Triton X-100, Tween-20)",
  "key": {"[1]": {"system": "CCHFV N protein stalk domain (Crimean Congo Hemorrhagic fever virus strain 10200?)"}, "[2]": {"system": "CCHFV nucleocapsid (N) protein, wild type (Crimean Congo Hemorrhagic fever virus strain 10200)"}, "[3]": {"system": "CCHFV nucleocapsid (N) protein, wild type (Crimean Congo Hemorrhagic fever virus strain 10200)", "remark": "listed apart in the source"}, "[4]": {"system": "CCHFV N protein stalk domain (Crimean Congo Hemorrhagic fever virus strain 10200?)", "remark": "listed apart in the source"}, "[5]": {"system": "CCHFV nucleocapsid (N) protein, wild type (Crimean Congo Hemorrhagic fever virus strain 10200)", "remark": "listed apart in the source"}},
  "data": [
    {"substance": "CCHFV S-segment mRNA 5' UTR", "values": [
      {"measurement": "Kd", "setting": "[1]", "result": 54, "unit": "nM"},
      {"measurement": "Kd", "setting": "[2]", "result": 54, "unit": "nM"},
      {"measurement": "Kd", "setting": "[3]", "result": 67, "unit": "nM"},
      {"measurement": "Kd", "setting": "[4]", "result": 36.7, "unit": "nM"},
      {"measurement": "Kd", "setting": "[5]", "result": 37.3, "unit": "nM"}
    ]}
  ]
}
